# In US20240277861A1, “ANTI-HEPATITIS B VIRUS AGENT TARGETING HOST FACTOR LIPG” (PUROTECH BIO, INC., priority 2021, published 2024):
# Experiments:
# HBV [1] = assay: HBV attachment, uptake and replication in Huh7-LIPG cells; type: cell-based; conditions: Huh7-LIPG cells infected with HBV, 3 days after treatment
# Description: (§1) HBV-DNA and cccDNA were quantified by qPCR as described below. Total DNA was extracted from cells using DNeasy Blood & Tissue Kit (Qiagen, Hilden, Germany). HBV-DNA was quantified by qPCR analysis as previously reported (Honda. M. et al., J. Infect. Dis., 213, 1096-1106, 2016). The extracted DNA (50 ng) was treated with 10 U of Plasmid safe DNase I (Epicentre, Madison. WI) at 37° C. for 60 minutes and then treated at 70° C. for 30 minutes for DNase inactivation, cccDNA was quantified by qPCR analysis as previously reported (Honda, M. et al., J. Infect. Dis. 213, 1096-1106, 2016). Quantitative RT-PCR was performed as described below. The GenElute™ Mammalian Total RNA Miniprep Kit (Sigma-Aldrich) was used for extraction of total RNA, and the High Capacity cDNA Reverse Transcription Kit (Applied Biosystems, Carlsbad, CA) was used for cDNA synthesis. The 7500 Real Time PCR System (Applied Biosystems) was used for RT-PCR. Primers 5′-[…]-3′ (SEQ ID NO: 31) and 5′-[…]-3′ (SEQ ID NO: 32) and a probe 5′-FAM-[…]-MGB-3′ (SEQ ID NO: 33) were used for pregenomic RNA. Primer pairs and probes for LIPG, NTCP. 18SrRNA, and ACTB were obtained from the TaqMan assay reagents library.
# When the abundance of LIPG expression was compared among different liver cell lines. […] HepG2-NTCP-C4 cells with overexpression of FLAG-LIPG (HepG2-NTCP-C4-LIPG cells) were established (FIG. 2B), and the attachment and uptake of HBV into cells were assayed in the resulting cells. Heparin, which has been reported to inhibit HBV attachment (Schulze. A. et al., Hepatology 46: 1759-1768, 2007), and heparanase, an endo-β-D-glucuronidase that cleaves the heparan sulfate side chain in heparan sulfate proteoglycans (HSPGs) (Bame, KJ. Glycobiology,11: 91R-98R,2001), were used as control compounds. […] HBV attachment was detected by qPCR of HBV-DNA at 3 hours after HBV inoculation at 4° C. in the presence or absence of the compound (heparin or heparanase). […]
# HBV [2] = assay: Anti-HBV activities of LIPG-binding peptides in PXB cells; type: cell-based; conditions: for anti-HBV activity (effect to reduce HBV DNA and cccDNA copy numbers): HBV-infected PXB cells
# Description: (§2) An infection source medium was prepared by adding the HBV-infected chimeric mouse serum (PhoenixBio), DMSO, and a PEG 8000 solution to the PXB cell culture medium (PhoenixBio) at final concentrations of 5 genome equivalents/cell, 2%, and 4%, respectively. Various synthesized peptides were diluted to different concentrations in this medium, and the resulting media were added individually to PXB cells (PhoenixBio). After the cells were left to stand in a 5% CO2 incubator at 37° C. for 20 to 28 hours, the medium was removed and the wells were washed once with PBS(−). DMSO and one of the various synthesized peptides were added to the PXB cell culture medium at a final concentration of 2% and different concentrations, respectively, and the resulting media were added individually to the PXB cells to perform medium exchange. This medium exchange was performed at 1, 5, and 9 days post infection and samples were collected at 14 days post infection.
# (§3) SMI TEST™ M EX-R&D (Medical & Biological Laboratories) was used to extract DNA from the samples. The extracted DNA was used as a template for quantitative PCR of HBV-DNA. For cccDNA detection, the extracted DNA was treated with T5 exonuclease (New England Biolabs), and the resulting DNA was used as a template for quantitative PCR. The T5 exonuclease treatment was performed at 37° C. for 30 minutes, and the DNase was later inactivated by heating at 80° C. for 15 minutes. The following primer set was used for detection.
# PXB cells, fresh human liver cells isolated from PXB mice (human hepatocyte chimeric mice), are human liver cells that maintain human liver functions at high levels and allow persistent infection with hepatitis B virus (HBV). Therefore, PXB cells were used to evaluate the anti-HBV activities of LIPG-binding peptides. LIPG-binding peptides were chemically synthesized because they were added extracellularly (Eurofins Genomics K.K.). Clones that had shown excellent results in the studies of Examples 10 and 1 (KIgk-LIPH4-23, KIgk-LIPH4-74, KIgk-LIPH4-15, KIgk-L1l 14-2. KIgk-LIPH14-14. KIgk-LIPH4-87) were selected for chemical synthesis of the peptides. […] Therefore, LIPH4-NTNA and LIPH4-NTNB, which share a common sequence with netrins and consist of 16 amino acids, were also chemically synthesized. The chemically synthesized peptides were dissolved in DMSO for use in HBV assays in PXB cells.
# Next, the anti-HBV activity of full-length Netrin-1 was examined in PXB cells. A full-length human recombinant Netrin-1 protein consisting of 604 amino acid residues (molecular weight: 67.5 kDa, SEQ ID NO: 28) was purchased from R&D Systems. United States. A shRNA with the sequence […]ctcgagc[…] TTTTTTG (single underline: terminal sequences for cloning, lowercase letters: hairpin loop sequence) (SEQ ID NO: 64) was used to knock down the Netrin-1 gene.
# [3] = target: T1, binding between preS1 and heparan sulfate enhanced by LIPG (Homo sapiens, UniProt Q9Y5X9); assay: Plate assay of binding between preS1 peptide and immobilized heparan sulfate with FLAG-LIPG; conditions: 10 or 100 nmol of peptide per well, concentration-dependent
# T1 construct: FLAG
# T1 sequence (Q9Y5X9 21-500): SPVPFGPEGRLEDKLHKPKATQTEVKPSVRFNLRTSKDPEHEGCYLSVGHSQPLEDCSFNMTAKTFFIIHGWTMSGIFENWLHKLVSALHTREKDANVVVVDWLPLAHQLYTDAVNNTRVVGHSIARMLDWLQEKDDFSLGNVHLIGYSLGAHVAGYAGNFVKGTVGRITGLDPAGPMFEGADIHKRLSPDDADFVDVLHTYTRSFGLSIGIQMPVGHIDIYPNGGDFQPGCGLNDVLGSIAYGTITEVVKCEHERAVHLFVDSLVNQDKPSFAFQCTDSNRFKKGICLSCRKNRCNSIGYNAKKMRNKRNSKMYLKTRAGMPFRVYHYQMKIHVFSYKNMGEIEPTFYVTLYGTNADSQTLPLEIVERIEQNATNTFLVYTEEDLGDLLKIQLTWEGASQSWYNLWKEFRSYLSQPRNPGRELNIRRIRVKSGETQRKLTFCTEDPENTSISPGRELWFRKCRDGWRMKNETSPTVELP
# Description: FIG. 22-2 The effect of LIPG to promote HBV entry into cells and the effect of a LIPG-binding peptide and Netrin-1 to inhibit HBV entry into cells. E: A biotin-labeled form of heparan sulfate was added to a streptavidin-coated 96 well plate and left overnight at 4° C. to allow the heparan sulfate to bind to the plate. This plate was washed with TBS, and 10, 25, or 50 fmol of FLAG-LIPG was then added to each well to allow the reaction to proceed at room temperature for 2 hours. After the plate was washed, 10 or 100 nmol of LIPG-binding peptide LIPH4-NTNBS, LIPH4-23S, LIPH4-NTNBSA, or LIPH4-23SA was added to each well to allow the treatment to proceed at room temperature for 1 hour. Subsequently, the plate was washed, and 0.1 nmol of preS1-TMR was added to each well to allow the treatment to proceed at room temperature for another 1 hour. The plate was washed and then placed in a plate reader to measure the fluorescence of TMR.
# Furthermore, PXB cells treated with Netrin-1 were further treated with FLAG-LIPG, and the uptake of the preS1 peptide was examined, to find that the enhancement of the uptake of the preS1 peptide by FLAG-LIPG was suppressed by Netrin-1 (FIG. 22D). In addition, a biotin-labeled heparan sulfate was immobilized on a streptavidin-coated plate and the preS1 peptide was added thereto to study the binding between the preS1 region of HBV and heparan sulfate present on the cell surface.
# HBV [4] = assay: HBV attachment and uptake assay in HepG2-NTCP-C4-LIPG cells; type: cell-based; conditions: pretreated 1 hour
# Description: as §1
# When the abundance of LIPG expression was compared among different liver cell lines. […] HepG2-NTCP-C4 cells with overexpression of FLAG-LIPG (HepG2-NTCP-C4-LIPG cells) were established (FIG. 2B), and the attachment and uptake of HBV into cells were assayed in the resulting cells. Heparin, which has been reported to inhibit HBV attachment (Schulze. A. et al., Hepatology 46: 1759-1768, 2007), and heparanase, an endo-β-D-glucuronidase that cleaves the heparan sulfate side chain in heparan sulfate proteoglycans (HSPGs) (Bame, KJ. Glycobiology,11: 91R-98R,2001), were used as control compounds. Cells (HepG2-NTCP-C4-LIPG cells and HepG2-NTCP-C4 control cells) were pretreated with these compounds for 1 hour and then with HBV at 4° C. for 3 hours to allow HBV to attach the cells, washed to wash out HBV, and further incubated at 37° C. for 12 hours to detect uptake of HBV (FIG. 2C). In addition, the cells were further cultured in a conventional culture medium for 3 days after HBV inoculation to detect HBV DNA and cccDNA in the cells (FIG. 2C). HBV attachment was detected by qPCR of HBV-DNA at 3 hours after HBV inoculation at 4° C. in the presence or absence of the compound (heparin or heparanase). HBV attachment (FIG. 2D), uptake (FIG. 2E), and replication of HBV DNA and cccDNA (FIGS. 2F and 2G) were all increased in the HepG2-NTCP-C4-LIPG cells compared to the HepG2-NTCP-C4 control cells.
# Next, the effect of a LIPG inhibitor (GSK-264220A) on HBV attachment and uptake was examined. […] At the same time, this inhibitor had no effect on HepG2-NTCP-C4 control cells.
# HBV [5] = assay: Anti-HBV activities of LIPG-binding peptides delivered into PXB cells-1 (scFv fusions); type: cell-based; conditions: for HBV-DNA copy number: peptide concentrations (nM) indicated in FIG. 41B; for cccDNA copy number: peptide concentrations (nM) indicated in FIG. 41C
# Description: as §2, §3
# The anti-HBV activities of LIPG-binding peptides delivered into cells were evaluated using PXB cells and anti-ASGR single-chain antibody-LIPG-binding peptide fusions. Of the fusions prepared in Example 16, 10M-L23N, 10M-L23SN. 10M-L23SN-S39, and 10M-LNTSN were used. According to the timeline shown in FIG. 41A, the anti-HBV activities of the fusions were evaluated using the methods described in “(10-5) Infection experiment using PXB cells” and “(10-6) Quantification of HBV-DNA and cccDNA”.
molecule,measurement,setting,value
CCN(c1nc(N)c(C(=O)N=C(N)N)nc1Cl)C(C)C [5-(N-ethyl-N-isopropyl)amiloride],LIPG-mediated increase in HBV replication (cccDNA),HBV [1],no effect
CN(C)CCCN1c2ccccc2Sc2ccc(Cl)cc21 [chlorpromazine],LIPG-mediated increase in HBV replication (cccDNA),HBV [1],no effect
LNARDNTR (LIPH4-23SA),anti-HBV activity (effect to reduce HBV DNA and cccDNA copy numbers),HBV [2],as strongly as the original polypeptides
same,LIPG-mediated enhancement of binding between preS1 and heparan sulfate,[3],inhibited
NARHNTAG (LIPH4-NTNBsA),anti-HBV activity (effect to reduce HBV DNA and cccDNA copy numbers),HBV [2],as strongly as the original polypeptides
same,activity in terms of copy number of HBV-DNA relative to LIPH4-NTNBs,"HBV [2]; PXB cells, each concentration",equal to or greater than that of LIPH4-NTNBs
same,activity in terms of copy number of cccDNA relative to LIPH4-NTNBs,"HBV [2]; PXB cells, each concentration",equal to or greater than that of LIPH4-NTNBs
same,LIPG-mediated enhancement of binding between preS1 and heparan sulfate,[3],inhibited
heparanase,"increase in HBV attachment, uptake, and replication of HBV DNA and cccDNA in LIPG-overexpressing cells",HBV [4],reduced this increase to the same level as the control
heparin,"increase in HBV attachment, uptake, and replication of HBV DNA and cccDNA in LIPG-overexpressing cells",HBV [4],reduced this increase to the same level as the control
"10M-L23SN: fusion of ASGR3-10M scFv, cleavage sequence, LIPH4-23s, S28, nuclear localization signal (SEQ ID NO: 128) (protein, cleavage sequence + LIPH4-23S + Flag-tag + His-tag + S28 + nuclear localization signal) RVRRLNCRDNTRDYKDDDDKHHHHHHHPFVIGAGVLGALGTGIGGITTSTQFYYKPAAKRVKLD",HBV-DNA copy number,HBV [5],remarkably reduced
same,cccDNA copy number,HBV [5],remarkably reduced
"10M-L23N: fusion of anti-ASGR scFv ASGR3-10M, cleavage sequence, LIPH4-23, S28, nuclear localization signal (SEQ ID NO: 127) (protein, cleavage sequence + LIPH4-23 + Flag-tag + His-tag + S28 + nuclear localization signal) RVRRLNCRDNTRPVMSAMTCDYKDDDDKHHHHHHHPFVIGAGVLGALGTGIGGITTSTQFYYKPAAKRVKLD",HBV-DNA copy number,HBV [5],remarkably reduced
same,cccDNA copy number,HBV [5],remarkably reduced
"10M-L23SN-S39: fusion of ASGR3-10M scFv, cleavage sequence, LIPH4-23s, S39, nuclear localization signal (SEQ ID NO: 129) (protein, cleavage sequence + LIPH4-23S + Flag-tag + His-tag + S39 + nuclear localization signal) RVRRLNCRDNTRDYKDDDDKHHHHHHHPFVIGAGVLGALGTGIGGITTSTQFYYKLSQELNGDMERPAAKRVKLD",HBV-DNA and cccDNA copy numbers,HBV [5]; added concentrations 2.5 to 25 nM,remarkably reduced
same,HBV-DNA copy number,HBV [5],remarkably reduced
same,cccDNA copy number,HBV [5],remarkably reduced
